Test results from publication PMC4259466.

Tests used:
ROCK2 = ROCK2 (UniProt O75116); assay: GST-MLC2 pull-down from HeLa lysate; details: sites Y118
MLC2 = MLC2 (UniProt P10916); assay: His-PKM2 bead pull-down of GST-MLC2; details: reference: WT His-PKM2 without Aurora B; sites T45

## MLC2 (from UniProt P10916) GST-MLC2 with PKM2 and PEP
ROCK2; reference: GST-MLC2 with PKM2, no PEP
  binding against the reference: stronger

## PKM2 (from UniProt P14618) WT His-PKM2 treated with Aurora B
MLC2
  binding against the reference: stronger

## MLC2 (from UniProt P10916) GST-MLC2 Y118F
ROCK2; reference: GST-MLC2 wild type
  binding against the reference: lost
